Reference: article PMC6491619, “Development and application of a high-content virion display human GPCR array” (Nature Communications, 2019)
No end group written: not given here.

Experiments:
Assay in all cases: virion-oscillator (plasmonic imaging, SPR read-out); VirD-GPCR virions tethered to a gold chip by a PEG linker and driven by a sinusoidal potential (5 Hz); label-free SRIF-14 perfused at several doses; first-order kinetics model
Conditions in all cases: one partner purified
VirD-GABBR2 = target: T1, VirD-GABBR2 (human, UniProt O75899 42-941)
T1 construct: source: recombinant HSV-1 (UL27 locus); virions from infected cells (in most cases Vero), purified by sucrose cushion; also on infected Vero cells; not shown: V5, C-terminal, kept
T1 sequence: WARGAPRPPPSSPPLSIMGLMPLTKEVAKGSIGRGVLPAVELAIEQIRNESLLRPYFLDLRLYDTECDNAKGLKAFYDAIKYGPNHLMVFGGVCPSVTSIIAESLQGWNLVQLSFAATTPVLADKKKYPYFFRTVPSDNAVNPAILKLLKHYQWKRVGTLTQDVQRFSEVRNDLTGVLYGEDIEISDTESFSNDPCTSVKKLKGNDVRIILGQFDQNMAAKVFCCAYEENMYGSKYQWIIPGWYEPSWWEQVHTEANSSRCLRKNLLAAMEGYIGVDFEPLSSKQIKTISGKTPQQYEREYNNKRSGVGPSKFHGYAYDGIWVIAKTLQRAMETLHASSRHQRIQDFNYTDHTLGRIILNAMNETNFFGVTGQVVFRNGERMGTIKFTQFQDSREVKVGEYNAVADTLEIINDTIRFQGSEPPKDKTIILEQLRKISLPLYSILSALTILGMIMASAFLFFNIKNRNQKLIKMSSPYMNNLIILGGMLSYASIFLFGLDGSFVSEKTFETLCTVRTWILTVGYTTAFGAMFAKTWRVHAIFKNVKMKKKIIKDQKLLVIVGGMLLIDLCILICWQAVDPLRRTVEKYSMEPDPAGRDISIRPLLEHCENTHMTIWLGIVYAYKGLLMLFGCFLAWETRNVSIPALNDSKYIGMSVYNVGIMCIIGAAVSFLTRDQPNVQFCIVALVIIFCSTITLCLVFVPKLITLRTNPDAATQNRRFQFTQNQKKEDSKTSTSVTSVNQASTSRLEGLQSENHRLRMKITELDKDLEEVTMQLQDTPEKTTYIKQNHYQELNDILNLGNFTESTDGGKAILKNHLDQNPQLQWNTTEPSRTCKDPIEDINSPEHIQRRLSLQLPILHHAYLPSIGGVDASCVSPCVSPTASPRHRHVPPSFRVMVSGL

VirD-KISS1R = target: T2, VirD-KISS1R (human, UniProt Q969F8 1-398)
T2 construct: source: recombinant HSV-1 (UL27 locus); virions from infected cells (in most cases Vero), purified by sucrose cushion; also on infected Vero cells; not shown: V5, C-terminal, kept
T2 sequence (Q969F8 whole entry): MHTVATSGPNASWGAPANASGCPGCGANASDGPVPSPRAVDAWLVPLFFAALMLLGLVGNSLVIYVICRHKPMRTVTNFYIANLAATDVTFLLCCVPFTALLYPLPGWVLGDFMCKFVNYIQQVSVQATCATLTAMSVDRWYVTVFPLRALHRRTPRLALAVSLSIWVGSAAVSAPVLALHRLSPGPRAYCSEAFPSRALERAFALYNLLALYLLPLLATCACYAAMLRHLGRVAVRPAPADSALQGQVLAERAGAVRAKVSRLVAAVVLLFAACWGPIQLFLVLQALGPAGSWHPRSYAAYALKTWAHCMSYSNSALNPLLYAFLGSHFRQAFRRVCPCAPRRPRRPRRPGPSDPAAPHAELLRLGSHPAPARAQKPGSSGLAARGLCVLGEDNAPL

VirD-NTSR1 = target: T3, VirD-NTSR1 (human, UniProt P30989 1-418)
T3 construct: source: recombinant HSV-1 (UL27 locus); virions from infected cells (in most cases Vero), purified by sucrose cushion; also on infected Vero cells; not shown: V5, C-terminal, kept
T3 sequence (P30989 whole entry): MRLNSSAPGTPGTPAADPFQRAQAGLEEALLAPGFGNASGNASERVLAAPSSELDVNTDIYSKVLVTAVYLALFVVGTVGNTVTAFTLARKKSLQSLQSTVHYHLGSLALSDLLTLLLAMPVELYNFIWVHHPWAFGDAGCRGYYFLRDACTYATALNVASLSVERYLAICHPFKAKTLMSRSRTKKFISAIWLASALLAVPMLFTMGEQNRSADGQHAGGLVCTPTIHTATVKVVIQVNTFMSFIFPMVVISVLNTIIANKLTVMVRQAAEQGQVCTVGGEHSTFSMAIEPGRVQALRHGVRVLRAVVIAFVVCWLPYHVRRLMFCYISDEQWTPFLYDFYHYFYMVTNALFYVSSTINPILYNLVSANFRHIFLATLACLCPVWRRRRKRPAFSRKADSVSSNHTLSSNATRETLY

B1: somatostatin-14 (SRIF-14), unlabeled (peptide)
peptide: AGCKNFFWKTFTSC
modifications: not fully specified (bridges); ends and bridges not checked
notes: somatostatin-14 (SRIF-14), cut product of the somatostatin precursor; also called cold SRIF-14; SIRF-14; source: bought: AnaSpec (peptide)
Kd (VirD-GABBR2): 400 nM
Kd (VirD-KISS1R): 25000 nM
Kd (VirD-NTSR1): 2600 nM
